How the values were obtained:
[1] = target: T1, Full-length Human OX40 (human, UniProt P43489 29-277); experiment: cell-based or functional assay
T1 sequence: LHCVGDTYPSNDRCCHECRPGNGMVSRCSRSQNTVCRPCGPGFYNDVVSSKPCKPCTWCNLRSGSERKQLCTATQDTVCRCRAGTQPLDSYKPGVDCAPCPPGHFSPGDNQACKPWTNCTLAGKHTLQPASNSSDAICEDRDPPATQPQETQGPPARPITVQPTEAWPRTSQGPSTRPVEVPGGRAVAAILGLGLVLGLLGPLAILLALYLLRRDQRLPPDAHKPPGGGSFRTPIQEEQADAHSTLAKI

[2] = target: Full-length Human 4-1BB (human, UniProt Q07011 24-255); experiment: cell-based or functional assay
Chain of Full-length Human 4-1BB (Q07011 24-255): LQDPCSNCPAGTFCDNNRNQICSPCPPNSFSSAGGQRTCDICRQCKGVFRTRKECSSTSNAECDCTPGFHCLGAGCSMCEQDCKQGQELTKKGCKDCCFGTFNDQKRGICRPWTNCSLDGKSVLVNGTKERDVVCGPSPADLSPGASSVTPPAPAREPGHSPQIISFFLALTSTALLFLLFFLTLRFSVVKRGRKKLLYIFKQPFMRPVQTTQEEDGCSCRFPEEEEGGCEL

[3] = target: T2, Fc gamma receptor RIIB/C (human, UniProt P31994 46-217); experiment: SPR, construct immobilized, receptor injected at 2 uM
T2 construct: soluble SPR analyte
T2 sequence (looked up): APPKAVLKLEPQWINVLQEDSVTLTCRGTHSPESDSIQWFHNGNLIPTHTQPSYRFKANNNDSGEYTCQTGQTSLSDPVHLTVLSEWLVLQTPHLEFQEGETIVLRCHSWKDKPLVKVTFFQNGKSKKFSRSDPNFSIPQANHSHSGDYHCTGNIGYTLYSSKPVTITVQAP
Description: Fcγ receptor binding to bispecific proteins was measured by Surface Plasmon Resonance on a Biacore 8K instrument at room temperature. Bispecific proteins with modified Fc regions to reduce binding to Fcγ receptors were directly immobilized on the surface of a CM5 sensor chip to a surface density of 4000 RU. A bispecific ADAPTIR™ protein with a wild type Fc was similarly immobilized to the surface as a positive control and used as a comparator to evaluate the reduction in binding resulting from changes incorporated into the Fc region amino acid sequence. Fcγ receptors (purchased from R&D Systems) were diluted to either 100 nM (FcγRI) or 2 μM (all other Fcγ receptors) in HBS-EP+ buffer before injecting over the surface of the prepared sensor chip at 30 μL/min for 60 seconds. Maximum RU values during association phase of each injection were used to compare the extent of binding of the modified Fc to wild type value and are reported in Table 17 below.

[4] = target: T3, Cyno 4-1BB ECD-AFH (cynomolgus monkey); experiment: SPR (Biacore 8K), construct captured, monovalent ECD
T3 construct: entry includes the tags; also called FOB004; Cyno CD137 ECD-avi-flag-his
T3 chain: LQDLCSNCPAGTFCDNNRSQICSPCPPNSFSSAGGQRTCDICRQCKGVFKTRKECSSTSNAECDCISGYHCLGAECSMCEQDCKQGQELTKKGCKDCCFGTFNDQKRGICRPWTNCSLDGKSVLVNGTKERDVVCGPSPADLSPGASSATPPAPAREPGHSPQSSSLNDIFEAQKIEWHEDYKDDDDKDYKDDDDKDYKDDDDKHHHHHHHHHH

[5] = target: T4, Human OX40 ECD-AFH (human); experiment: as above
T4 construct: ECD'; entry includes the C-terminal tags; also called OXF003; Human OX40 ECD-avi-flag-his
T4 chain: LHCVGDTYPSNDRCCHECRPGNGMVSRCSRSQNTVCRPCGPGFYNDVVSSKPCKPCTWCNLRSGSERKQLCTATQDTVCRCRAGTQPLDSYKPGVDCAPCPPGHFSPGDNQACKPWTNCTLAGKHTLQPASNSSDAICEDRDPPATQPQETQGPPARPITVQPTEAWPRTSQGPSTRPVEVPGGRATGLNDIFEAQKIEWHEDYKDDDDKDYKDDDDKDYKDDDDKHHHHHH

[6] = target: T5, Human 4-1BB ECD-AFH (human); experiment: as above
T5 construct: entry includes the tags; also called FOB003; HUMAN CD137 ECD-AVI-FLAG-HIS

[7] = target: T6, Cyno OX40-AFH (cynomolgus monkey); experiment: as above
T6 construct: entry includes the tags; also called OXF005; cyno OX40 ECD
T6 chain: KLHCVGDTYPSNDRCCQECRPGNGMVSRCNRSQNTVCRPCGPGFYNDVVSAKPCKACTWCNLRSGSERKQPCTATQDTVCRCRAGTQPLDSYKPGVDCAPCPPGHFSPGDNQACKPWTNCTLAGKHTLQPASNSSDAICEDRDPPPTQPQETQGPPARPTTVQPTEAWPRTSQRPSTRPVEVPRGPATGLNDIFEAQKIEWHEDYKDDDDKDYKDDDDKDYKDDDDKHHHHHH
Wherever 4-1BB Reporter Assay Max induction is given: unit not given here.
Wherever OX40 Reporter Assay Max induction is given: unit not given here.

B1: FXX01066 (bispecific antibody)
chain: EVQLVQSGAEVKKPGASVKVSCKASGYTFTSYWMNWVRQAPGQGLEWMGNIYPSGGSTNYAQKFQGRVTMTVDTSTSTVYMELSSLRSEDTAVYYCASFSDGYYAYAMDYWGQGTLVTVSSGGGGSGGGGSGGGGSGGGGSEIVMTQSPATLSLSPGERATLSCRASQSVSSYLNWYQQKPGQAPRLLIYYASRRHTGIPARFSGSGSGTDFTLTISSLQPEDFAVYYCQQGYNLPYTFGQGTKVEIKEPKSSDKTHTCPPCPAPPAAAPSVFLFPPKPKDTLMISRTPEVTCVVVDVSHEDPEVKFNWYVDGVEVHNAKTKPREEQYNSTYRVVSVLTVLHQDWLNGKEYKCAVSNKALPAPIEKTISKAKGQPREPQVYTLPPSRDELTKNQVSLTCLVKGFYPSDIAVEWESNGQPENNYKTTPPVLDSDGSFFLYSKLTVDKSRWQQGNVFSCSVMHEALHNHYTQKSLSLSPGGGGSPSSYVLTQPPSVSVAPGQTARITCGGNNIGSKSVNWFQQKPGQAPVLVVYDDSGRPSGIPERFSGSTSGNTATLTISRVEAGDEADYYCQVWDSSSDHVVFGGGTKLTVLGGGGSGGGGSGGGGSGGGGSQVQLVESGGGVVQPGRSLRLSCAASGFTLSYYGMHWVRQAPGKGLEWVAAISHDGSDKYYADSVKGRFTISRDNSKNTLYLQMNSLRAEDTAVYYCSNDQFDPWGQGTLVTVSSR
notes: ADAPTIR scFv-Fc-scFv, anti-4-1BB (VH-VL) N-terminal, anti-OX40 C-terminal, PAA (del) Fc; also called FX01066
[1]
  OX40 Reporter Assay EC50: 0.021 nM
  OX40 Reporter Assay Max induction: 5.86e+06
[2]
  4-1BB Reporter Assay EC50: 0.017 nM
  4-1BB Reporter Assay Max induction: 1.37e+06
[3]
  Max RU value during association: 21 RU
[4]
  Kd: 92 nM
  koff: 0.0092 s⁻¹
  kon: 100000 M⁻¹ s⁻¹
[5]
  Kd: < 1 nM
  koff: 0.00027 s⁻¹
  kon: 1.1e+06 M⁻¹ s⁻¹
[6]
  Kd: 16 nM
  koff: 0.0043 s⁻¹
  kon: 270000 M⁻¹ s⁻¹
[7]
  Kd: < 1 nM
  koff: 0.00019 s⁻¹
  kon: 1.5e+06 M⁻¹ s⁻¹

B2: FXX01101 (bispecific antibody)
chain: EVQLVQSGAEVKKPGASVKVSCKASGYTFTSYWMNWVRQAPGQGLEWMGNIYPSGGSTNYAQKFQGRVTMTVDTSTSTVYMELSSLRSEDTAVYYCASFSDGYYAYAMDYWGQGTLVTVSSGGGGSGGGGSGGGGSGGGGSEIVMTQSPATLSLSPGERATLSCRASQSVSSYLNWYQQKPGQAPRLLIYYASRRHTGIPARFSGSGSGTDFTLTISSLQPEDFAVYYCQQGYNLPYTFGQGTKVEIKEPKSSDKTHTCPPCPAPPAAAPSVFLFPPKPKDTLMISRTPEVTCVVVDVSHEDPEVKFNWYVDGVEVHNAKTKPREEQYNSTYRVVSVLTVLHQDWLNGKEYKCAVSNKALPAPIEKTISKAKGQPREPQVYTLPPSRDELTKNQVSLTCLVKGFYPSDIAVEWESNGQPENNYKTTPPVLDSDGSFFLYSKLTVDKSRWQQGNVFSCSVMHEALHNHYTQKSLSLSPGGGGSPSSYVLTQPPSVSVAPGQTARITCGGNNIGSKSVNWFQQKPGQAPVLVVYDDSGRPSGIPERFSGSTSGNTATLTISRVEAGDEADYYCQVWDSSSDHVVFGGGTKLTVLGGGGSGGGGSGGGGSGGGGSQVQLVESGGGVVQPGRSLRLSCAASGFTLSYYGMHWVRQAPGKGLEWVAAISHDGSDKYYADSVKGRFTISRDNSKNRLYLQMNSLRAEDTAVYYCSNDQFDPWGQGTLVTVSSR
notes: ADAPTIR anti-4-1BB (HL) x anti-OX40 with T86R; PAA (del) Fc; also called FX01101
[1]
  OX40 Reporter Assay EC50: 0.017 nM
  OX40 Reporter Assay Max induction: 5.89e+06
[2]
  4-1BB Reporter Assay EC50: 0.018 nM
  4-1BB Reporter Assay Max induction: 1.44e+06
[3]
  Max RU value during association: 21 RU
[4]
  Kd: 76 nM
  koff: 0.0077 s⁻¹
  kon: 100000 M⁻¹ s⁻¹
[5]
  Kd: < 1 nM
  koff: 0.00029 s⁻¹
  kon: 980000 M⁻¹ s⁻¹
[6]
  Kd: 17 nM
  koff: 0.0046 s⁻¹
  kon: 270000 M⁻¹ s⁻¹
[7]
  Kd: < 1 nM
  koff: 0.00027 s⁻¹
  kon: 1.1e+06 M⁻¹ s⁻¹
